Substrate in this data set: COc1cc(-c2ccc(N)c(OC)c2)ccc1N
In words: purified protein. It is filed as biochemical, Mycolicibacterium smegmatis. The settings on record: 6.6 mM t-BuOOH, 4.5 μM Cu(II).

[1] abbreviates: 6-PGLac (parent), 1.25 μM protein, MES pH 6.5, 150 mM NaCl, 25 °C, free copper background subtracted.
Setting [2] is: D131N (reversion of parent N131D = natural sequence), 1.25 μM protein, MES pH 6.5, 150 mM NaCl, 25 °C, free copper background subtracted.
Where [3] appears, read: Y69W on the N131D parent, MES pH 6.5, 25 °C.
The mark [4] stands for this setting: H9A on the N131D parent, MES pH 6.5, 25 °C.
Where [5] appears, read: H95A on the N131D parent, MES pH 6.5, 25 °C.
Setting [6] is: Y69L on the N131D parent, MES pH 6.5, 25 °C.
Setting [7] is: Y69F on the N131D parent, MES pH 6.5, 25 °C.

In general, Km refers to the substrate concentration at which the rate is half of its maximum. As a reminder, the kcat/Km is the turnover number divided by the Michaelis constant.

Changes are numbered by the printed parent chain. Names and notes keep the numbering of the source.

B1: 6-phosphogluconolactonase (6-PGLac; Cu·6-PGLac) (Mycolicibacterium smegmatis MC2 155; N131D) (protein)
chain: MSDTVIERHADTAALVAAAGDRLVDAISSAIGERGQATIVLTGGGTGIGLLKRVRERSGEIDWSKVHIYWGDERFVPQDDDERNDKQAREALLDHIGIPPVNVHAMAASDGEFGDDLEAAAAGYAQLLSADFDSSVPGFDVHLLGMGGEGHVNSLFPDTDAVRETERLVVGVSDSPKPPPRRITLTLPAVQNSREVWLVVSGEAKADAVAAAVGGADPVDIPAAGAVGRERTVWLVDEAAAAKL
notes: Strep-tag II, expressed in E. coli, purified, loaded with Cu(II)
B1: under setting [1], the Km was 11 ± 3 µM, the kcat is 78 ± 4 × 10^-3 s^-1 and the kcat/Km worked out at 6900 ± 2000 M⁻¹ s⁻¹. Besides, under setting [2], the Km worked out at 21 ± 6 µM, the kcat was 150 ± 10 × 10^-3 s^-1 and the kcat/Km is 7200 ± 2000 M⁻¹ s⁻¹.

B2: 6-phosphogluconolactonase (6-PGLac; Cu·6-PGLac) (Mycolicibacterium smegmatis MC2 155; N131D/Y69W) (protein)
chain: B1 chain with Y69W
notes: as for B1
Regarding B2, under setting [3], the Km is 4.8 ± 2 µM, the kcat is recorded as 33 ± 2 × 10^-3 s^-1 and the specificity constant (kcat/Km) turned out to be 6900 ± 3000 M⁻¹ s⁻¹.

B3: 6-phosphogluconolactonase (6-PGLac; Cu·6-PGLac) (Mycolicibacterium smegmatis MC2 155; H9A/N131D) (protein)
chain: B1 chain with H9A
notes: as for B1
For the protein B3, under setting [4], the Km stood at 12 ± 5 µM, the kcat is reported as 80 ± 6 × 10^-3 s^-1 and the kcat/Km is 6500 ± 3000 M⁻¹ s⁻¹.

B4: 6-phosphogluconolactonase (6-PGLac; Cu·6-PGLac) (Mycolicibacterium smegmatis MC2 155; H95A/N131D) (protein)
chain: B1 chain with H95A
notes: as for B1
On to B4, for which, under setting [5], the Km was 17 ± 5 µM, the kcat was 80 ± 6 × 10^-3 s^-1 and the specificity constant (kcat/Km) was determined as 4600 ± 2000 M⁻¹ s⁻¹.

B5: 6-phosphogluconolactonase (6-PGLac; Cu·6-PGLac) (Mycolicibacterium smegmatis MC2 155; N131D/Y69L) (protein)
chain: B1 chain with Y69L
notes: as for B1
Consider B5, for which, under setting [6], the Km stood at 82 ± 10 µM, the kcat is reported as 490 ± 30 × 10^-3 s^-1 and the kcat/Km turned out to be 5900 ± 900 M⁻¹ s⁻¹.

B6: 6-phosphogluconolactonase (6-PGLac; Cu·6-PGLac) (Mycolicibacterium smegmatis MC2 155; N131D/Y69F) (protein)
chain: B1 chain with Y69F
notes: as for B1
In the case of B6, under setting [7], the Km amounted to 36 ± 8 µM, the kcat was 100 ± 7 × 10^-3 s^-1 and the kcat/Km amounted to 2900 ± 700 M⁻¹ s⁻¹.

The record behind these values is article PMC5707476, “Enzyme repurposing of a hydrolase as an emergent peroxidase upon metal binding” (Chemical Science, 2015).
